*1 amine or outer side, *2 acyl side, *3 side chain or, on linkers, in order; H or OH if unused. Primed or numbered codes have the meaning given here. Where no end group is shown, it is not given here. Side-chain parts run from the residue outwards. [ ]: non-standard residue; d: D form. The star is where a group is joined. Thp′ = 4-amino-tetrahydro-2H-pyran-4-yl-acetic acid, O=C(CC1(N[*:1])CCOCC1)[*:2]; ThP = 4-amino-tetrahydro-2H-pyran-4-yl-acetic acid, O=C(CC1(N[*:1])CCOCC1)[*:2]; C18 diacid = O=C(O)CCCCCCCCCCCCCCCCC(=O)*; C16 diacid = O=C(O)CCCCCCCCCCCCCCC(=O)*; γGlu = O=C(O)[C@H](CCC(=O)[*:2])N[*:1]; NMeI = CC[C@H](C)[C@H](NC)C(=O)O; Ac6c = NC1(C(=O)O)CCCCC1; Aib = CC(C)(N)C(=O)O
T1: CRF1R receptor (UniProt P34998 24-415, limits assumed)
T1 sequence (looked up): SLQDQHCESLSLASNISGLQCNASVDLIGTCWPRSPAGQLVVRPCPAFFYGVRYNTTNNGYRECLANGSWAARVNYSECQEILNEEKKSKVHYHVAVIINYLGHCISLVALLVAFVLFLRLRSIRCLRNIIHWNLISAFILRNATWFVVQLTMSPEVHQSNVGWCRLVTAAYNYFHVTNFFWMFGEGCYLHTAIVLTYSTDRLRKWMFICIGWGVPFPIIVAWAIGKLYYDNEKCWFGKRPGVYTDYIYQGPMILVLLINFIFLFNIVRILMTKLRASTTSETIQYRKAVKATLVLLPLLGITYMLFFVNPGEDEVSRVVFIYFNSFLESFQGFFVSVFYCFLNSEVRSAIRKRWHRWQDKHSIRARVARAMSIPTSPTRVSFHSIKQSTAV

B1: SEQ ID NO 23 (peptide)
peptide: [NMeI]VLSLD[dV]PIKLK([γGlu-C18 diacid])QILLKQERQKKQREQAEKN[Aib]QILEQV-NH2
modifications: N-terminus assumed
SMILES: CC[C@H](C)[C@H](NC)C(=O)N[C@H](C(=O)N[C@@H](CC(C)C)C(=O)N[C@@H](CO)C(=O)N[C@@H](CC(C)C)C(=O)N[C@@H](CC(=O)O)C(=O)N[C@@H](C(=O)N1CCC[C@H]1C(=O)N[C@H](C(=O)N[C@@H](CCCCN)C(=O)N[C@@H](CC(C)C)C(=O)N[C@@H](CCCCNC(=O)CC[C@H](NC(=O)CCCCCCCCCCCCCCCCC(=O)O)C(=O)O)C(=O)N[C@@H](CCC(N)=O)C(=O)N[C@H](C(=O)N[C@@H](CC(C)C)C(=O)N[C@@H](CC(C)C)C(=O)N[C@@H](CCCCN)C(=O)N[C@@H](CCC(N)=O)C(=O)N[C@@H](CCC(=O)O)C(=O)N[C@@H](CCCNC(=N)N)C(=O)N[C@@H](CCC(N)=O)C(=O)N[C@@H](CCCCN)C(=O)N[C@@H](CCCCN)C(=O)N[C@@H](CCC(N)=O)C(=O)N[C@@H](CCCNC(=N)N)C(=O)N[C@@H](CCC(=O)O)C(=O)N[C@@H](CCC(N)=O)C(=O)N[C@@H](C)C(=O)N[C@@H](CCC(=O)O)C(=O)N[C@@H](CCCCN)C(=O)N[C@@H](CC(N)=O)C(=O)NC(C)(C)C(=O)N[C@@H](CCC(N)=O)C(=O)N[C@H](C(=O)N[C@@H](CC(C)C)C(=O)N[C@@H](CCC(=O)O)C(=O)N[C@@H](CCC(N)=O)C(=O)N[C@H](C(N)=O)C(C)C)[C@@H](C)CC)[C@@H](C)CC)[C@@H](C)CC)C(C)C)C(C)C
B2: SEQ ID NO 24 (peptide)
peptide: [NMeI]VLSLD[dV]PIKLK([γGlu-C18 diacid])QILLKQERQKKQREQAEKNAQILEQV-NH2
modifications: N-terminus assumed
SMILES: CC[C@H](C)[C@H](NC)C(=O)N[C@H](C(=O)N[C@@H](CC(C)C)C(=O)N[C@@H](CO)C(=O)N[C@@H](CC(C)C)C(=O)N[C@@H](CC(=O)O)C(=O)N[C@@H](C(=O)N1CCC[C@H]1C(=O)N[C@H](C(=O)N[C@@H](CCCCN)C(=O)N[C@@H](CC(C)C)C(=O)N[C@@H](CCCCNC(=O)CC[C@H](NC(=O)CCCCCCCCCCCCCCCCC(=O)O)C(=O)O)C(=O)N[C@@H](CCC(N)=O)C(=O)N[C@H](C(=O)N[C@@H](CC(C)C)C(=O)N[C@@H](CC(C)C)C(=O)N[C@@H](CCCCN)C(=O)N[C@@H](CCC(N)=O)C(=O)N[C@@H](CCC(=O)O)C(=O)N[C@@H](CCCNC(=N)N)C(=O)N[C@@H](CCC(N)=O)C(=O)N[C@@H](CCCCN)C(=O)N[C@@H](CCCCN)C(=O)N[C@@H](CCC(N)=O)C(=O)N[C@@H](CCCNC(=N)N)C(=O)N[C@@H](CCC(=O)O)C(=O)N[C@@H](CCC(N)=O)C(=O)N[C@@H](C)C(=O)N[C@@H](CCC(=O)O)C(=O)N[C@@H](CCCCN)C(=O)N[C@@H](CC(N)=O)C(=O)N[C@@H](C)C(=O)N[C@@H](CCC(N)=O)C(=O)N[C@H](C(=O)N[C@@H](CC(C)C)C(=O)N[C@@H](CCC(=O)O)C(=O)N[C@@H](CCC(N)=O)C(=O)N[C@H](C(N)=O)C(C)C)[C@@H](C)CC)[C@@H](C)CC)[C@@H](C)CC)C(C)C)C(C)C
B3: SEQ ID NO 133 (peptide)
peptide: Ac-IVLSLD[dV]PIKLK([γGlu-C18 diacid])KILLEQEKQKKQREQAETN[ThP]QILAQV-NH2
SMILES: CC[C@H](C)[C@H](NC(C)=O)C(=O)N[C@H](C(=O)N[C@@H](CC(C)C)C(=O)N[C@@H](CO)C(=O)N[C@@H](CC(C)C)C(=O)N[C@@H](CC(=O)O)C(=O)N[C@@H](C(=O)N1CCC[C@H]1C(=O)N[C@H](C(=O)N[C@@H](CCCCN)C(=O)N[C@@H](CC(C)C)C(=O)N[C@@H](CCCCNC(=O)CC[C@H](NC(=O)CCCCCCCCCCCCCCCCC(=O)O)C(=O)O)C(=O)N[C@@H](CCCCN)C(=O)N[C@H](C(=O)N[C@@H](CC(C)C)C(=O)N[C@@H](CC(C)C)C(=O)N[C@@H](CCC(=O)O)C(=O)N[C@@H](CCC(N)=O)C(=O)N[C@@H](CCC(=O)O)C(=O)N[C@@H](CCCCN)C(=O)N[C@@H](CCC(N)=O)C(=O)N[C@@H](CCCCN)C(=O)N[C@@H](CCCCN)C(=O)N[C@@H](CCC(N)=O)C(=O)N[C@@H](CCCNC(=N)N)C(=O)N[C@@H](CCC(=O)O)C(=O)N[C@@H](CCC(N)=O)C(=O)N[C@@H](C)C(=O)N[C@@H](CCC(=O)O)C(=O)N[C@H](C(=O)N[C@@H](CC(N)=O)C(=O)NC1(CC(=O)N[C@@H](CCC(N)=O)C(=O)N[C@H](C(=O)N[C@@H](CC(C)C)C(=O)N[C@@H](C)C(=O)N[C@@H](CCC(N)=O)C(=O)N[C@H](C(N)=O)C(C)C)[C@@H](C)CC)CCOCC1)[C@@H](C)O)[C@@H](C)CC)[C@@H](C)CC)C(C)C)C(C)C
B4: SEQ ID NO 142 (peptide)
peptide: [NMeI]VLSLD[dV]PIKLK([γGlu-C18 diacid])KILLEQEKQKKQREQAETNEQILAQV-NH2
modifications: N-terminus assumed
SMILES: CC[C@H](C)[C@H](NC)C(=O)N[C@H](C(=O)N[C@@H](CC(C)C)C(=O)N[C@@H](CO)C(=O)N[C@@H](CC(C)C)C(=O)N[C@@H](CC(=O)O)C(=O)N[C@@H](C(=O)N1CCC[C@H]1C(=O)N[C@H](C(=O)N[C@@H](CCCCN)C(=O)N[C@@H](CC(C)C)C(=O)N[C@@H](CCCCNC(=O)CC[C@H](NC(=O)CCCCCCCCCCCCCCCCC(=O)O)C(=O)O)C(=O)N[C@@H](CCCCN)C(=O)N[C@H](C(=O)N[C@@H](CC(C)C)C(=O)N[C@@H](CC(C)C)C(=O)N[C@@H](CCC(=O)O)C(=O)N[C@@H](CCC(N)=O)C(=O)N[C@@H](CCC(=O)O)C(=O)N[C@@H](CCCCN)C(=O)N[C@@H](CCC(N)=O)C(=O)N[C@@H](CCCCN)C(=O)N[C@@H](CCCCN)C(=O)N[C@@H](CCC(N)=O)C(=O)N[C@@H](CCCNC(=N)N)C(=O)N[C@@H](CCC(=O)O)C(=O)N[C@@H](CCC(N)=O)C(=O)N[C@@H](C)C(=O)N[C@@H](CCC(=O)O)C(=O)N[C@H](C(=O)N[C@@H](CC(N)=O)C(=O)N[C@@H](CCC(=O)O)C(=O)N[C@@H](CCC(N)=O)C(=O)N[C@H](C(=O)N[C@@H](CC(C)C)C(=O)N[C@@H](C)C(=O)N[C@@H](CCC(N)=O)C(=O)N[C@H](C(N)=O)C(C)C)[C@@H](C)CC)[C@@H](C)O)[C@@H](C)CC)[C@@H](C)CC)C(C)C)C(C)C
B5: SEQ ID NO 59 (peptide)
peptide: Ac-IVLSLD[dV]PIKLK([γGlu-C16 diacid])KILLEQEKQKKQREQAETN[Ac6c]QILAQV-NH2
SMILES: CC[C@H](C)[C@H](NC(C)=O)C(=O)N[C@H](C(=O)N[C@@H](CC(C)C)C(=O)N[C@@H](CO)C(=O)N[C@@H](CC(C)C)C(=O)N[C@@H](CC(=O)O)C(=O)N[C@@H](C(=O)N1CCC[C@H]1C(=O)N[C@H](C(=O)N[C@@H](CCCCN)C(=O)N[C@@H](CC(C)C)C(=O)N[C@@H](CCCCNC(=O)CC[C@H](NC(=O)CCCCCCCCCCCCCCC(=O)O)C(=O)O)C(=O)N[C@@H](CCCCN)C(=O)N[C@H](C(=O)N[C@@H](CC(C)C)C(=O)N[C@@H](CC(C)C)C(=O)N[C@@H](CCC(=O)O)C(=O)N[C@@H](CCC(N)=O)C(=O)N[C@@H](CCC(=O)O)C(=O)N[C@@H](CCCCN)C(=O)N[C@@H](CCC(N)=O)C(=O)N[C@@H](CCCCN)C(=O)N[C@@H](CCCCN)C(=O)N[C@@H](CCC(N)=O)C(=O)N[C@@H](CCCNC(=N)N)C(=O)N[C@@H](CCC(=O)O)C(=O)N[C@@H](CCC(N)=O)C(=O)N[C@@H](C)C(=O)N[C@@H](CCC(=O)O)C(=O)N[C@H](C(=O)N[C@@H](CC(N)=O)C(=O)NC1(C(=O)N[C@@H](CCC(N)=O)C(=O)N[C@H](C(=O)N[C@@H](CC(C)C)C(=O)N[C@@H](C)C(=O)N[C@@H](CCC(N)=O)C(=O)N[C@H](C(N)=O)C(C)C)[C@@H](C)CC)CCCCC1)[C@@H](C)O)[C@@H](C)CC)[C@@H](C)CC)C(C)C)C(C)C
B6: SEQ ID NO 134 (peptide)
peptide: Ac-IVLSLD[dV]PIKLK([γGlu-C18 diacid])KILLEQEKQKKQREQAETN[Ac6c]QILAQV-NH2
SMILES: CC[C@H](C)[C@H](NC(C)=O)C(=O)N[C@H](C(=O)N[C@@H](CC(C)C)C(=O)N[C@@H](CO)C(=O)N[C@@H](CC(C)C)C(=O)N[C@@H](CC(=O)O)C(=O)N[C@@H](C(=O)N1CCC[C@H]1C(=O)N[C@H](C(=O)N[C@@H](CCCCN)C(=O)N[C@@H](CC(C)C)C(=O)N[C@@H](CCCCNC(=O)CC[C@H](NC(=O)CCCCCCCCCCCCCCCCC(=O)O)C(=O)O)C(=O)N[C@@H](CCCCN)C(=O)N[C@H](C(=O)N[C@@H](CC(C)C)C(=O)N[C@@H](CC(C)C)C(=O)N[C@@H](CCC(=O)O)C(=O)N[C@@H](CCC(N)=O)C(=O)N[C@@H](CCC(=O)O)C(=O)N[C@@H](CCCCN)C(=O)N[C@@H](CCC(N)=O)C(=O)N[C@@H](CCCCN)C(=O)N[C@@H](CCCCN)C(=O)N[C@@H](CCC(N)=O)C(=O)N[C@@H](CCCNC(=N)N)C(=O)N[C@@H](CCC(=O)O)C(=O)N[C@@H](CCC(N)=O)C(=O)N[C@@H](C)C(=O)N[C@@H](CCC(=O)O)C(=O)N[C@H](C(=O)N[C@@H](CC(N)=O)C(=O)NC1(C(=O)N[C@@H](CCC(N)=O)C(=O)N[C@H](C(=O)N[C@@H](CC(C)C)C(=O)N[C@@H](C)C(=O)N[C@@H](CCC(N)=O)C(=O)N[C@H](C(N)=O)C(C)C)[C@@H](C)CC)CCCCC1)[C@@H](C)O)[C@@H](C)CC)[C@@H](C)CC)C(C)C)C(C)C

Target: T1, CRF1R receptor
Assay: cell-based or functional assay

Binder	Emax (% I) [%]	EC50 [nM]
B1	35	–
B2	37	–
Ac-IVLSLD[dV]PIKLK([γGlu-C16 diacid])KILLEQEKQKKQREQAETN[Thp′]QILAQV-NH2 [SEQ ID NO 58]	6	> 250
B3	11	> 250
B4	3	–
B5	9	–
B6	10	–

Target: human corticotropin-releasing factor 2a (CRF2a receptor) (human), Q13324
Assay: cell-based or functional assay

Chain of human corticotropin-releasing factor 2a (CRF2a receptor) (human), Q13324 (Q13324 20-411): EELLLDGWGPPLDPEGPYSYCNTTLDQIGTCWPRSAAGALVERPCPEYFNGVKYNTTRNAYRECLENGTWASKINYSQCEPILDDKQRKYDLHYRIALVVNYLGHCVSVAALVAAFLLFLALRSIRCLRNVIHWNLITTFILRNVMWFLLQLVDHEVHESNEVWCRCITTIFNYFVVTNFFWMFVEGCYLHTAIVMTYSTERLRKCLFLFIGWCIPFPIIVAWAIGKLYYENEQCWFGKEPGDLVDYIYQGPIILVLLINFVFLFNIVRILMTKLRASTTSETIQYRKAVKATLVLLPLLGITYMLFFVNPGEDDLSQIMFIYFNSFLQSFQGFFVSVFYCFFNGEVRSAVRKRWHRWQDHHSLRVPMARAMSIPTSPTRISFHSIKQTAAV

Binder	EC50 [nM] (cAMP)
B1	0.33
B2	0.04
Ac-IVLSLD[dV]PIKLK([γGlu-C16 diacid])KILLEQEKQKKQREQAETN[Thp′]QILAQV-NH2 [SEQ ID NO 58]	0.41
B3	0.16
B4	0.07
B5	0.81
B6	0.5

Source: patent US20260001928A1 (CORTERIA PHARMACEUTICALS, priority 2022, published 2026)
